In paper PMC3101288 one finds stoichiometry N data, which are given here for one substance.

This assay concerns the target HlmI (thioredoxin-disulfide oxidoreductase-like dithiol oxidase of the holomycin gene cluster) (Streptomyces clavuligerus). Nature of the assay: SEC. (In general: In gel filtration, larger molecules generally elute earlier.)

As usually defined, the stoichiometry N is a count of units in the complex or per binding partner. The substance “HlmI (thioredoxin-disulfide oxidoreductase-like dithiol oxidase of the holomycin gene cluster) (enzyme)” returned a stoichiometry N of 2.
